The record followed here is the supplement of paper PMC10567573.

The data set can be described thus: protein stability index of a GFP-peptide fusion (GPS, HEK-293T) (PSI 1-6); higher = more stable. The following applies: c terminus: a fixed tail appended.

± gives the standard deviation.
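Also: 24-mer peptide tiles fused after GFP, lentivirally expressed, FACS-sorted into six equal bins by GFP/DsRed ratio, decoded by Illumina sequencing, PSI is the read-weighted mean bin number.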

Regarding DFHQGLLSFYNARTKQVLHTFKTR [FSD1], the protein stability index reads like this: (treatment: DMSO) 2.2 ± 0.16; (treatment: MLN4924 1 uM, 8 h) 2.28 ± 0.31.
For DGMRNKETLEGREKAFIAHFQDNL [MED27] the same measures were 4.35 ± 0.17 and 4.2 ± 0.17.
For DGNSLLSSIECYDPIIDSWEVVTS [KLHL12] the same measures were 3.29 ± 0.33 and 3.47 ± 0.47.
With DGSKSLGEENFEVVKQFVTGIIDS [MATN2], the protein stability index runs as follows: (treatment: DMSO) 4.38 ± 0.13; (treatment: MLN4924 1 uM, 8 h) 4.33 ± 0.27.
On the same counts, the results for DGVPHLILIASRDIAAGEELLYDY [KMT5A] are 1.98 ± 0.31 and 2.13 ± 0.099.
DHDPTIEDAYKIRIRIDDEPANLD [RIT1]: the protein stability index (treatment: DMSO) was 4.86 ± 0.19 and the protein stability index (treatment: MLN4924 1 uM, 8 h) was 4.84 ± 0.21.
On the same counts, the results for DIKQLIAKKIKLTAEAEELKPFFM [SOAT1] are 2.59 ± 0.59 and 2.15 ± 0.1.
For DIQIVERKKSADVLALADEAGYYF [ADAMTSL2], the protein stability index turned out to be 3.08 ± 0.23 (treatment: DMSO) and 3.39 ± 0.2 (treatment: MLN4924 1 uM, 8 h).
On the same counts, the results for DKDCSLDCAGSPQKPLCASDGRTF [SMOC2] are 4.68 ± 0.39 and 4.76 ± 0.34.
DKLEYLDEKQRDPRIEASKVLLCH [NET1]: the protein stability index amounted to 4.09 ± 0.22 (treatment: DMSO) and 4.08 ± 0.19 (treatment: MLN4924 1 uM, 8 h).
For DKMEAYNIDETCGRHHSQSTEVQA [TEKT4] the same measures were 4.91 ± 0.19 and 4.9 ± 0.17.
For DKWFRKIKDHFCPFENQFHTEIQI [C8orf76] the same measures were 2.2 ± 0.54 and 2.32 ± 0.42.
For DLETHRLPCTSRCPRPCRESAFKL [SCNN1D] the same measures were 2.41 ± 0.21 and 2.44 ± 0.063.
Take DLLNVCMRHVEKMCKADLSRNFIE [TRIM29]: the protein stability index (treatment: DMSO) is 3.09 ± 0.21 and the protein stability index (treatment: MLN4924 1 uM, 8 h) was found to be 2.87 ± 0.28.
On the same counts, the results for DLLPTFRHTLQKLTCEFNNNHESL [FBXO39] are 2.27 ± 0.22 and 2.35 ± 0.48.
As to DLQVNRNFSLATNTKYSVYIYVYF [R3HDM1], the protein stability index by setting is: (treatment: DMSO) 2.59 ± 0.59; (treatment: MLN4924 1 uM, 8 h) 2.88 ± 0.078.
On to DLRGVCVSGKCEPIGCDGVLFSTH [ADAMTSL2], for which the protein stability index by setting is: (treatment: DMSO) 2.4 ± 0.091; (treatment: MLN4924 1 uM, 8 h) 2.75 ± 0.59.
For DLSHIEGLSQAPQPLADEGPPGRS [SERTAD1] the same measures were 5.11 ± 0.31 and 5.14 ± 0.36.
On the same counts, the results for DLVRLLQNVARIPEFELLWKDIIH [INTS3] are 2.61 ± 0.65 and 2.15 ± 0.19.
On the same counts, the results for DMKLIILANRLCLPHLVALTEQYT [RHOBTB2] are 3.8 ± 0.26 and 3.08 ± 1.3.
Sequence DNAIMLFSPDFTLRNTLKSTSEDS [FAN1] showed a protein stability index (treatment: DMSO) of 4.22 ± 0.34 and a protein stability index (treatment: MLN4924 1 uM, 8 h) of 4.2 ± 0.5.
As to DPEPSGPHLPRVMLPGVLAGVSAE [SCNN1D], the protein stability index is, setting by setting: (treatment: DMSO) 4.59 ± 0.43; (treatment: MLN4924 1 uM, 8 h) 4.33 ± 0.21.
For DPFTVPTISFICRELDAISTNEEE [PRIM1] the same measures were 4.85 ± 0.31 and 4.78 ± 0.3.
On the same counts, the results for DPKEDVFQQNHLFWLQNSSPSSDR [PHTF1] are 4.71 ± 0.18 and 4.49 ± 0.19.
For DPQLEIAYRGNCKDVSRCVAERKY [SMOC2] the same measures were 4.04 ± 0.32 and 4.12 ± 0.11.
For the sequence DSFDKFEFCEPAFVVGNCLQIASD [PCMTD1], the protein stability index is, setting by setting: (treatment: DMSO) 3.31 ± 0.072; (treatment: MLN4924 1 uM, 8 h) 3.24 ± 0.22.
For DSGDVSNVIEKVKCILKTPGKINC [RHOBTB3] the same measures were 2.92 ± 0.21 and 2.87 ± 0.5.
On the same counts, the results for DSKDCILEPLSLPESPGGTTTLEG [ZNF277] are 5.36 ± 0.19 and 5.32 ± 0.25.
Turning to DTILKYLKDHFSHLLGIPHSVLQI [IQUB], the protein stability index reads like this: (treatment: DMSO) 2.61 ± 0.43; (treatment: MLN4924 1 uM, 8 h) 2.63 ± 0.67.
Consider DTPVQNKRRRSVTPPEEQQEAEEP [CDC25B], for which the protein stability index was determined as 5.51 ± 0.35 (treatment: DMSO) and 5.71 ± 0.22 (treatment: MLN4924 1 uM, 8 h).
For DTSGFPDLSDNRNEDPLVLLAWRC [FBXO33] the same measures were 2.67 ± 0.23 and 3 ± 0.46.
For the sequence DVEGAESQLDEDEHGLHTKYIHRM [TRAF3IP2], the protein stability index amounted to 5.09 ± 0.23 (treatment: DMSO) and 5.13 ± 0.11 (treatment: MLN4924 1 uM, 8 h).
For DVHHGQGTQFTFDQDPSVLYFSIH [HDAC6] the same measures were 2.04 ± 0.34 and 2.02 ± 0.34.
On the same counts, the results for DVQLLHSWNNNDRSLNVFVKEDDK [SPSB1] are 4.88 ± 0.14 and 4.97 ± 0.18.
On the same counts, the results for DVRMGGSFRGAFSNSEKAKNIFRI [NET1] are 2.32 ± 0.44 and 2.44 ± 0.31.
As to DVTCFLLPHPGLQVATSPDFDGKL [ATL3], the protein stability index is 2.58 ± 0.27 (treatment: DMSO) and 2.69 ± 0.35 (treatment: MLN4924 1 uM, 8 h).
